The Kd is a measure of binding affinity in units of concentration.

Experimental findings from publication PMC13276077 are described below.

Data set [1] has as its target HisMBP-MeCP2 272-309 (Homo sapiens, UniProt P51608 272-309). As to the kind of experiment: EMSA; 20 mM HEPES pH 7.5, 75 mM NaCl, 125 mM KCl, 50 uM EDTA, 2.5 mM beta-mercaptoethanol, 5% glycerol, BSA, 1.58 uM 47 bp competitor DNA (nucleosome assays; absent with free DNA), room temperature 30 min. The conditions noted are these: protein: recombinant; tags: His-MBP; label: 5' 6-FAM; blunt. A general note: Mobility shift assays separate free from complexed probe on a gel.

For data set [2], the target named is HisMBP-DNMT3A 1-427 K54A K56A (UniProt Q9Y6K1 1-427, K54A;K56A). Described as above. The conditions noted are these: protein: recombinant; tags: His-MBP; label: 5' 6-FAM; blunt.
Sequence of HisMBP-DNMT3A 1-427 K54A K56A (Q9Y6K1 1-427 K54A/K56A): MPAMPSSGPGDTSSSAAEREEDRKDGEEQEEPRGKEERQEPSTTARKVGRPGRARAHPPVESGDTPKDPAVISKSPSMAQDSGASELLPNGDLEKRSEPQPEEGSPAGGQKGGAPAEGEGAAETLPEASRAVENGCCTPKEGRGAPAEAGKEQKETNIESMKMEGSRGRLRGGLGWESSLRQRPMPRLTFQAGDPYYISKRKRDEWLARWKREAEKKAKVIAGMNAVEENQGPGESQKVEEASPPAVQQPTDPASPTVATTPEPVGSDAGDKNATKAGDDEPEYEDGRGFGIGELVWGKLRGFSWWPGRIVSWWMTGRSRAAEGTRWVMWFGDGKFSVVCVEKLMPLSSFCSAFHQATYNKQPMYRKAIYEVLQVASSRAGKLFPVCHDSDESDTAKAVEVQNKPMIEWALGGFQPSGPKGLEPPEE
Data set [3] has as its target HisMBP-MeCP2 162-309 (Homo sapiens, UniProt P51608 162-309). Described as above. The conditions noted are these: protein: recombinant; tags: His-MBP; label: 5' 6-FAM; blunt.
Data set [4] deals with HisMBP-MeCP2 205-257 (DIR) (Homo sapiens, UniProt P51608 205-257). The description is as above. The settings on record: protein: recombinant; tags: His-MBP; label: 5' 6-FAM; blunt.
The target in data set [5] is HisMBP-DNMT3A 1-427 (UniProt Q9Y6K1 1-427). The data set is described as above. The settings on record: protein: recombinant; tags: His-MBP; label: 5' 6-FAM; blunt.
Sequence of HisMBP-DNMT3A 1-427 (Q9Y6K1 1-427): as the sequence (Q9Y6K1 1-427 K54A/K56A) above, with A54K, A56K counted along it
Data set [6] deals with HisMBP-MeCP2 205-309 (Homo sapiens, UniProt P51608 205-309). The description is as above. The settings on record: protein: recombinant; tags: His-MBP; label: 5' 6-FAM; blunt.
The target of data set [7] is HisMBP-MeCP2 258-309 (Homo sapiens, UniProt P51608 258-309). The data set is described as above. The conditions noted are these: protein: recombinant; tags: His-MBP; label: 5' 6-FAM; blunt.
Data set [8] concerns the target MeCP2 MBD;histone octamer (Homo sapiens;Homo sapiens, UniProt P51608;P0C0S8;P62807;P68431;P62805 77-167;2-130;2-126;2-136;2-103, |H3.1 C96S;C110A). As to the kind of experiment: EMSA; 20 mM HEPES pH 7.5, 75 mM NaCl, 125 mM KCl, 50 uM EDTA, 2.5 mM beta-mercaptoethanol, 5% glycerol, BSA, 1.58 uM 47 bp competitor DNA (nucleosome assays); absent w.
For data set [9], the target named is MeCP2 full-length, e2 isoform;histone octamer (Homo sapiens;, UniProt P51608;P0C0S8;P62807;P68431;P62805 1-486;2-130;2-126;2-136;2-103, |H2B T115C;H3.1 C96S;C110A). Described as above.
The target of data set [10] is MeCP2 full-length, e2 isoform;histone H1.0 25-97;histone octamer (Homo sapiens;Homo sapiens;, UniProt P51608;P07305;P0C0S8;P62807;P68431;P62805 1-486;25-97;2-130;2-126;2-136;2-103, ||H2B T115C;H3.1 C96S;C110A). The experiment in a line: EMSA; H1.0 residues 25-97 pre-bound (chromatosome); 20 mM HEPES pH 7.5, 75 mM NaCl, 125 mM KCl, 50 uM EDTA, 2.5 mM beta-mercaptoethanol, 5% glycerol, BSA, 1.58 uM 47 bp competitor DNA (nucleosome assays); absent w.

Data set [11] deals with MeCP2 full-length, e2 isoform;histone H1.0 1-97;histone octamer (Homo sapiens;Homo sapiens;, UniProt P51608;P07305;P0C0S8;P62807;P68431;P62805 1-486;1-97;2-130;2-126;2-136;2-103, ||H2B T115C;H3.1 C96S;C110A). As to the kind of experiment: EMSA; H1.0 residues 1-97 pre-bound (chromatosome); 20 mM HEPES pH 7.5, 75 mM NaCl, 125 mM KCl, 50 uM EDTA, 2.5 mM beta-mercaptoethanol, 5% glycerol, BSA, 1.58 uM 47 bp competitor DNA (nucleosome assays); absent w.

In data set [12] the target is MeCP2 MBD;histone octamer, H3Kc27me3 (Homo sapiens;Homo sapiens, UniProt P51608;P0C0S8;P62807;P68431;P62805 77-167;2-130;2-126;2-136;2-103, |H3.1 K27C (trimethyl-lysine analogue, Kc27me3);C96S;C110A). As to the kind of experiment: EMSA; H3K27me3 (H3Kc27me3) histone octamer; 20 mM HEPES pH 7.5, 75 mM NaCl, 125 mM KCl, 50 uM EDTA, 2.5 mM beta-mercaptoethanol, 5% glycerol, BSA, 1.58 uM 47 bp competitor DNA (nucleosome assays); absent w.

In data set [13] the target is MeCP2 MBD;histone octamer, tailless H3 (Homo sapiens;Homo sapiens, UniProt P51608;P0C0S8;P62807;P68431;P62805 77-167;2-130;2-126;26-136;2-103, |H3.1 del1-24;A25C;C96S;C110A). The experiment in a line: EMSA; H3-tailless histone octamer; 20 mM HEPES pH 7.5, 75 mM NaCl, 125 mM KCl, 50 uM EDTA, 2.5 mM beta-mercaptoethanol, 5% glycerol, BSA, 1.58 uM 47 bp competitor DNA (nucleosome assays); absent w.

B1: 40 bp dsDNA (dsDNA)
DNA 1: AATACGCGGCCGCCCTGGAGAATCCCGGTGCCGAGGCCGC
DNA 2: GCGGCCTCGGCACCGGGATTCTCCAGGGCGGCCGCGTATT
Turning to B1, the binding result in data set [1] is recorded as “no binding”. Further, the Kd turned out to be 367 ± 27.5 nM in data set [2]; 31.6 ± 1.7 nM in data set [3]; 216 ± 9.2 nM in data set [4]; 87.8 ± 5.2 nM in [5]; 77.5 ± 4.8 nM in [6]; 167 ± 8.5 nM in [7].

B2: 15-N601-15 nucleosome 81 meCpA (nucleosome)
DNA 1: ATGGAACACATTGCACAGGATGTATATATCTGACACGTGCCTGGAGACTAGGGAGTAATCCCCTTGGCGGTTAAAACGCGGGGGACAGCGCGTACGTGCGTTTAAGCGGTGCTAGAGCTGTCTACGACCAATTGAGCGGCCTCGGCACCGGGATTCTCCAGGGCGGCCGCGTATT
DNA 2: AATACGCGGCCGCCCTGGAGAATCCCGGTGCCGAGGCCGCTCAATTGGTCGTAGACAGCTCTAGCACCGCTTAAACGCACGTACGCGCTGTCCCCCGCGTTTTAACCGCCAAGGGGATTACTCCCTAGTCTCCAGGCACGTGTCAGATATATACATCCTGTGCAATGTGTTCCAT
modifications: linker meCpA 81 bp from dyad
In the case of B2, the Kd in data set [8] worked out at 424 nM; in [9], 141 nM; in [10], 295 nM; in data set [11], 382 nM; in [12], 442 nM; in data set [13], 334 nM.
